According to patent US20230295310A1 (ABCELLERA BIOLOGICS, published 2023):

target: human CD3 (human, UniProt P07766 23-207; P04234 22-171; P09693 23-182); assay: cell-based or functional assay
Sequence (P07766 23-207, chain 1 of 3): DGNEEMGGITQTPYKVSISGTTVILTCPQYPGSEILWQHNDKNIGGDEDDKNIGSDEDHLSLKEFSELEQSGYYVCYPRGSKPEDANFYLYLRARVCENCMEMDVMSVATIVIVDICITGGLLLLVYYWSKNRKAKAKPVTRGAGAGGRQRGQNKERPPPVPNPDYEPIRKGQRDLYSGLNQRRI
Sequence (P04234 22-171, chain 2 of 3): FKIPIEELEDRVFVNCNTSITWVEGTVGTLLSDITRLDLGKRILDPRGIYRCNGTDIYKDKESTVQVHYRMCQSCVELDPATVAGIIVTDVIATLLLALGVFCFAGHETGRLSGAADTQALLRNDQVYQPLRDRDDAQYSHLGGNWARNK
Sequence (P09693 23-182, chain 3 of 3): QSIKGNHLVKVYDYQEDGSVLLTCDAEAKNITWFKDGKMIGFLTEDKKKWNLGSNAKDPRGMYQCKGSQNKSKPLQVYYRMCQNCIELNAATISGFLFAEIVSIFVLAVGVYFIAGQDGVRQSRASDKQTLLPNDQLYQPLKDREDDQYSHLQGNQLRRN

Binder	CD4 EC50 (nM); CD69/CD25 on human T cells, plate-coated antibody	CD8 EC50 (nM); CD69/CD25 on human T cells, plate-coated antibody
mAb 164 (antibody, V domains shown) VH: EVQLVESGGGLVKTGGSLRLSCVASGFSFKKAWMNWVRQAPGKGLEWVGRIKRNTDGGTADYAAPVKGRFTLSRDDSKKTLFLQMNSLKTEDTAVYYCTTLDSSSYYVGYYYMDVWGKGTTVTVSS VL: DIQMTQSPSSVSASVGDRVTITCRASQDIKNWLAWYQQKPGKAPKLLIYTASSLQSGVPSRFSGSGSGTDFTLTIGSLQPEDFATYYCQQAHSLPITFGQGTRLEIK	6.84 nM	6.62 nM
mAb 165 (antibody, V domains shown) VH: EVQLVESGGGLVKTGGSLRLSCVASGFSFKKAWMNWVRQAPGKGLEWVGRIKRNTDGGTADYAAPVKGRFTLSRDDSKRTLYLQMNSLKTEDTAVYYCTTLDSSSRYVGYYYMDVWGKGTTVTVSS VL: DIQMTQSPSSVSASVGDRVIITCRASQDINNWLAWYQQKPGKVPKLLIYTASSLQSGVPSRFSGSGSGTDFTLTIGSLQPEDFATYYCQQAHSLPITFGQGTRLEIK	6.48 nM	6.57 nM
mAb 166 (antibody, V domains shown) VH: EVQLVESGGGLVKTGGSLRLSCVASGFSFKKAWMNWVRQAPGRGLEWVGRIKRNTDGGTTDYAAPVKGRFTLSRDDSKNMLYLQMNSLKTEDTAVYYCTTLDSSSLYVGYYYMDVWGKGTTVTVSS VL: DIQMTQSPSSVSASVGDRVTITCRASQDINNWLAWYQQKPGKAPKLLIYTASSLQSGVPSRFSGSGSGTDFTLTISSLQPEDFATYFCQQAHSLPITFGQGTRLEIT	10.5 nM	10.6 nM
mAb 169 (antibody, V domains shown) VH: EVQLVESGGGLVKTGGSLRLSCVASGFSFKKAWMNWVRQAPGKGLEWVGRIKRNTDGGTADYAAPVKGRFTLSRDDSKKTLFLQMNSLKTEDTAVYYCTTLDSSSYYVGYYYMDVWGKGTTVTVSS VL: DIQMTQSPSSVSASVGDRVIITCRASQDINNWLAWYQQKPGKAPKLLIYTASSLQSGVPSRFSGSGSGTDFILTIGSLQPEDFATYYCQQAHSLPITFGQGTRLEIK	6.49 nM	6.67 nM
mAb 175 (antibody, V domains shown) VH: EVELVESGGGLVQPGGSLRLSCAASGFTFSSNWMSWVRQAPGKGLEWVANIKQDGSEKYYVDSVKGRFTISRDNAKNSLYLKMNSLRAEDTAVYYCARDCSSNWYWYFDLWGRGTLVTVSS VL: not shown	21.6 nM	21.2 nM
mAb 158 (antibody, V domains shown) VH: EVQLVESGGGLVQPGRSLRLSCAASGFTFADYTMHWVRQVPGKGLEWVSGISWNSGSVDYADSVKGRFTISRDNAKKTLYLQMNSLRAEDTALYYCAKDSSGYGHYYFYYLDVWGKGTTVTVSS VL: EIVMTQSPATLSVSPGERATLSCRATQSVSSNLAWYQQKPGQAPRLLIYSTSTRATGIPARFSGSRSGTEFTLTISSLQSEDSAVYYCQQYNNWPHFGQGTRLEIK	6.67 nM	6.62 nM
mAb 173 (antibody, V domains shown) VH: EVQLVESGGGLVQPGRSLRLSCAASGFTFDDYTMHWVRQVPGKGLEWVSDISWNSGSVGYADSVKGRFTISRDNAKNSLYLQMNSLRAEDTALYYCVKDSSGYGHYFHYYMDVWGKGTTVTVSS VL: DIQMTQSPSSLSASVGDRVTITCRASQSISNYLNWYQVKPGKAPKVLIYAASSLQSGVPSRFSGSGSGTDFTLTISSLQPEDFVSYYCHQSYNTPITFGQGTRLEIK	12.5 nM	12.3 nM
mAb 161 (antibody, V domains shown) VH: EVQLVESGGGLVQPGRSLRLSCAASGITFADYTMHWVRQAPGKGLEWVSGISWNSGSIDYADSVKGRFTISRDNAKKTLYLQMNRLRAEDTALYYCAKDSSGYGHYYFYYLDVWGKGTTVTVSS VL: EIVMTQSPATLSVSPGERATLSCRASQSVSNNLAWYQQKPGQAPRLLIYSTSTRATGIPARFSGSRSGTEFTLTISSLQSEDSAVYYCQQYNNWPHFGQGTRLEIK	6.76 nM	7.89 nM
mAb 160 (antibody, V domains shown) VH: EVQLVESGGGLVQPGRSLRLSCAVSGFTFNDYTMHWVRQVPGKGLEWVSGISWNSGSIGYADSVKGRFTISRDNAKNSLYLQMNSLRAEDTALYFCAKDSSGYGHYYYYYMDVWGRGTTVTVSS VL: EIVMTQSPATLSVSPGERATLSCRASQSVRKNLAWYQQKPGQAPRLLIYGASTRATGIPARFSGSGSGTEFTLTISSLQSEDFAVYYCQLYNNWPHFGQGTRLEIK	6.95 nM	8.47 nM
mAb 162 (antibody, V domains shown) VH: EVQLVESGGGLVQPGRSLRLSCAASGFTFDNYAMHWVRQAPGKGLEWVSGISWNSGSIGYADSVKGRFTISRDNAKNSLYLELNSLRAEDTALYYCAKDSSGYGYYYNYYMDVWGKGTTVTVSS VL: EIVMTQSPATLSVSPGERATLSCRASQSVRSNLAWYQQKPGQAPRLLIYGASTRATGIPAKFSGSGSGTEFTLTISSLQSEDFAVYYCQYYYNWPHFGQGTRLEIK	12.6 nM	12.7 nM
mAb 53 (antibody, V domains shown) VH: QVQLVQSGAEVKKPGASVKVSCKASGYTFTSYDINWVRQATGQGLEWMGWMNPKSGKTGYAQKFQGRITMTRNTPISTVYMDLSSLRSEDTAVYYCAREGHYDFWTGYYSFDYWGQGTLVTVSS VL: DIQMTQSPSSLSASVGDRVTITCRASQGIRNDLGWYQQTPGKAPKRLIYAASSLQSGVPSRFSGSGSGTEFTLTISSLQPEDFATYYCLQHYSYPYTFGQGTKLEIK	18.3 nM	18.3 nM
mAb 170 (antibody, V domains shown) VH: EVQLVESGGGLVRPGRSLRLSCAASGFTFDDYTMHWVRQAPGKGLEWVSGISWNSGSIGYADSVKGRFTISRDNAKNSLYLQMNSLRAEDTALYYCSKDSSGYGYYLNYSLDVWGKGTTVTVSS VL: not shown	14.6 nM	15.1 nM

Second part, the binder after the results:

CD4 EC50 (nM); CD69/CD25 on human T cells, plate-coated antibody	CD8 EC50 (nM); CD69/CD25 on human T cells, plate-coated antibody	Binder
23.2 nM	22.9 nM	mAb 172 (antibody, V domains shown) V domain 1: EVQLVESGGGLVQPGRSLRLSCTTSGFTFDDYTMHWVRQVPGKGLEWVSDISWNSGSVGYADSVKGRFTISRDNAKNSLYLQMNSLRAEDTALYYCVKDSSGYGHYFHYYMDVWGKGTTVTVSS V domain 2: EVQLVESGGGLVQPGRSLRLSCTTSGFTFDDYTMHWVRQVPGKGLEWVSDISWNSGSVGYADSVKGRFTISRDNAKNSLYLQMNSLRAEDTALYYCVKDSSGYGHYFHYYMDVWGKGTTVTVSS
6.42 nM	6.57 nM	mAb 157 (antibody, V domains shown) VH: EVQLVESGGGLVKTGGSLRLSCVASGFSFKKAWMNWVRQAPGKGLEWVGRIKRTADGGATDYAAPVKGRFTLSRDDSKNTLYLQMNSLKTEDTAVYYCTTLDSSSWYVGYYYMDVWGKGTTVTVSS VL: DIHMTQAPSSVSASVGDRVTFTCRASQDINNWLAWYQQKPGKAPKLLIYTASSLQSGVPSRFSGSGSGTDFTLTISSLQPEDFATYYCQQAHSLPITFGQGTRLGIK
6.3 nM	6.99 nM	mAb 163 (antibody, V domains shown) VH: EVQLVESGGGLVKTGGSLRLSCVASGFSFKKAWMNWVRQVPGKGLEWVGRIKRNTDGGTADYAAPVKGRFTLSRDDSKKTLFLQMNSLKTEDTAVYYCTTLDSSSYYVGYYYMDVWGKGTTVTVSS VL: DIQMTQSPSSVSASVGDRVIITCRASQDINNWLAWYQQKPGKAPKLLIYTASSLQSGVPSRFSGSGSGTDFTLTIGSLQPEDFATYYCQQAHSLPITFGQGTRLEIK
19.5 nM	19.4 nM	mAb 174 (antibody, V domains shown) VH: EVQLVESGGGLVQPGGSLRLSCAASGFTFSSNWMSWVRQAPGKGLEWVANIKQDGSEKYSVDSVKGRFTISRDNAKNSLYLQMNSLRAEDTAVYYCARDRSRNYYWYFDLWGRGTLVTVSS VL: not shown
6.86 nM	6.71 nM	mAb 171 (antibody, V domains shown) VH: EVQLVESGGGLVQPGRSLRLSCAASGFTFADYTMHWVRQAPGQGLEWVSGISWNSGSIDYADSVKGRFIISRDNAKKTLYLQMNSLRAEDTALYYCAKDSSGYGHYYFYYLDVWGKGTTVTVSS VL: EIVMTQSPATLSVSPGERATLSCRASQSVSSNLAWYQQKPGQAPRLLIYSTSTRATGIPARFSGSRSGTEFTLTISSLQSEDSAVYYCQQYNNWPHFGQGTRLEIK
12 nM	11.9 nM	mAb 159 (antibody, V domains shown) VH: EVQLVESGGGLVQPGRSLRLSCAASGFTFNGYTMHWVRQVPGKGLEWVSGISWNSGSVGYADSVKGRFTISRDNAKNSLFLQMNSLRAEDTALYYCAKDSSGYGHYYYYYMDVWGKGTTVTVSS VL: EIVMTQSPATLSVSPGERATLSCRASQSVRNNLAWYQQKPGQAPRLLIYGASTRATGIPARFSGSGSGTEFTLTISSLQSEDFALYYCQLYNNWPHFGQGTRLEIK
8.79 nM	9.48 nM	mAb 52 (antibody, V domains shown) VH: QVQLVQSGAEVKKPGASVKVSCKASGYTFTSHDINWVRQATGQGLEWMGWLNPNSGKTGYAQKFQGRVTMARDTSMYTADMELSSLRFEDTAVYYCARVGHYDMWPGFFSFDYWGQGTLVTVSS VL: DIQMTQSPSSLSASVGDRIIITCRASQDIRNDLGWYQQKPGKAPKRLIYAASSLQSGVPSRFSGSRSGTEFTLTISSLHPEDFATYYCLQHRSYPYTFGQGTNLEIK
6.3 nM	6.36 nM	mAb 167 (antibody, V domains shown) VH: EVHLVESGGGLVQPGRSLRLSCAASGFTFDDYAMHWVRQAPGKGLEWVSGISWNSGTIGYADSVKGRFTISRDNAKNSLYLEMNSLRAEDTALYYCAKDSSGYGHYYHYYIDVWGTGTTVTVSS VL: EIVMTQSPATLSVSPGGRATLSCRASQSVGSNLAWYQQKPGQAPRLLIYDASTRATGIPARFRGSGSGTEFTLTISGLQSEDFAVYYCQLYYNWPHFGQGTRLEIK
